Experimental data from US20240301068A1 (BEIJING HANMI PHARMACEUTICAL, published 2024).
Read-outs that look alike come from different tables or passages of the source.

Legend:
[1] = target: T1, recombinant human CD86 (Sino Biological Inc.) (human, UniProt P42081 24-247, limits assumed); test: ELISA, plate coated with 1 ug/mL recombinant human CD86 (printed B7-2), anti-human IgG-HRP, OD450; antibody concentration not shown
T1 sequence (looked up): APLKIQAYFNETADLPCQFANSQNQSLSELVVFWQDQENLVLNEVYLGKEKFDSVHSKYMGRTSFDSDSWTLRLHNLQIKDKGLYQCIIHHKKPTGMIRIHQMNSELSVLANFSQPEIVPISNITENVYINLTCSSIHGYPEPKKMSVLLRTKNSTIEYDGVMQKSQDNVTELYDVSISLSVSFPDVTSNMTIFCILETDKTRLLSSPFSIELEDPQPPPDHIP
Protocol: (§1) The plate was washed 5 times with PBST, and then blocked using PBST with 1% BSA, 300 μL/well, and incubated at 25° C. for 1 hour, and then washed 5 times with PBST. […] The horseradish peroxidase-labeled anti-human IgG antibody (Chemicon, catalog number AP309P) diluted 1:10000 in PBST with 1% BSA was then added, 100 μL per well, and incubated at 25° C. for 1 hour. The plate was washed 5 times with PBST. The colorimetric substrate TMB was added, 100 μL/well, and developed at room temperature for 10 minutes. 1M H₂SO₄ was added, 100 μL/well, to stop the development. The absorbance at 450 nm was read on a microplate reader.

[2] = target: T2, recombinant human PD-L1 (Sino Biological Inc.) (human, UniProt Q9NZQ7 19-239); test: affinity determination (dissociation constant), method not stated
[3] = target: recombinant human CTLA4 (Sino Biological Inc.) (human, UniProt P16410 36-162); test: ELISA, plate coated with 1 ug/mL recombinant human CTLA4, anti-human IgG-HRP, OD450; antibody concentration not shown
Protocol: as §1

[4] = target: T3, recombinant human B7-H2 (Sino Biological Inc.) (human, UniProt O75144 19-258, limits assumed); test: ELISA, plate coated with 1 ug/mL recombinant human B7-H2, anti-human IgG-HRP, OD450; antibody concentration not shown
T3 sequence (looked up): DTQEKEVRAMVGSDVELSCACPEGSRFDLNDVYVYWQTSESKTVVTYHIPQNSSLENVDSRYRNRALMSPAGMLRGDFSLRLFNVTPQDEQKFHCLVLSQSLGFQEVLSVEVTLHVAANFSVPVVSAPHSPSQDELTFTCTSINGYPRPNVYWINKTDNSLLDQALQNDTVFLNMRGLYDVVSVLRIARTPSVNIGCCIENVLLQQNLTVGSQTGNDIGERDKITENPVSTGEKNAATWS
Protocol: as §1

[5] = target: T2, recombinant human PD-L1 (Sino …); test: SPR, Biacore X100
Protocol: (§2) This instrument utilizes optical surface plasmon resonance technology to detect the association and dissociation between the molecules coated on the biochip and the molecules to be tested. Association constants and dissociation constants were analyzed and calculated by Biacore X100 evaluation software. […]

[6] = target: recombinant human CD28 (Sino Biological Inc.) (human, UniProt P10747 19-152); test: ELISA, plate coated with 1 ug/mL recombinant human CD28, anti-human IgG-HRP, OD450; antibody concentration not shown
Protocol: as §1

[7] = target: recombinant human PD1 (Sino Biological Inc.) (human, UniProt Q15116 25-167); test: ELISA, plate coated with 1 ug/mL recombinant human PD1, anti-human IgG-HRP, OD450; antibody concentration not shown
Protocol: as §1

[8] = target: T4, recombinant human ICOS (Sino Biological Inc.) (human, UniProt Q9Y6W8 21-141); test: ELISA, plate coated with 1 ug/mL recombinant human ICOS, anti-human IgG-HRP, OD450; antibody concentration not shown
T4 sequence (looked up): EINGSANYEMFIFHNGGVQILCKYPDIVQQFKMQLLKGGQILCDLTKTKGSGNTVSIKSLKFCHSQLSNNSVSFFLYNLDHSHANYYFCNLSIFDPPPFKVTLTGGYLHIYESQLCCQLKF
Protocol: as §1

[9] = target: recombinant human BTLA (Sino Biological Inc.) (human, UniProt Q7Z6A9 31-157, limits assumed); test: ELISA, plate coated with 1 ug/mL recombinant human BTLA, anti-human IgG-HRP, OD450; antibody concentration not shown
Protocol: as §1

[10] = target: T5, recombinant human PD-L1-Fc protein (human, UniProt Q9NZQ7 19-238, limits assumed); test: blocking ELISA, plate coated with 1 ug/mL human PD-L1-Fc; blocked ligand biotin-labelled PD-1-Fc at 20 nM final, streptavidin-HRP, OD450
T5 construct: Prepared by Beijing Hanmi Pharmaceutical; The GenBank number is NP_001254635.1
Protocol: A 96-well high-adsorption ELISA plate was coated with 1 μg/mL of the recombinant human PD-L1-Fc at 100 μL per well using carbonate buffer solution, pH=9.6 at 4° C. overnight. The plate was washed 5 times with PBST, and then blocked using PBST with 1% BSA, 300 μL/well, and incubated at 25° C. for 1 hour, and then washed 5 times with PBST. […] The Streptavidin-HRP (BD Pharmingen, catalog number 554066) diluted 1:1000 in PBST with 1% BSA was then added, 100 μL per well, and incubated at 25° C. for 1 hour. The plate was washed 5 times with PBST. The colorimetric substrate TMB was added, 100 μL/well, and developed at room temperature for 10 minutes. 1M H₂SO₄ was added, 100 μL/well, to stop the development. The absorbance at 450 nm was read on a microplate reader.

[11] = target: T2, recombinant human PD-L1 (Sino …); test: SPR, Biacore X100; remark: listed apart in the source
Protocol: as §2

T2 sequence (Q9NZQ7 19-239 limits assumed): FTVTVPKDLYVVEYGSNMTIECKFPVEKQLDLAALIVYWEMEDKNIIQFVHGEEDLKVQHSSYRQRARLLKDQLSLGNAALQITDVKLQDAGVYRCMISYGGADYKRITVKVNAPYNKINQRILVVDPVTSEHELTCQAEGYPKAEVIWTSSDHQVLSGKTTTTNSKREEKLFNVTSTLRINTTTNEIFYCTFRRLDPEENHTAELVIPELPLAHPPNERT
T5 sequence (Q9NZQ7 19-238 limits assumed): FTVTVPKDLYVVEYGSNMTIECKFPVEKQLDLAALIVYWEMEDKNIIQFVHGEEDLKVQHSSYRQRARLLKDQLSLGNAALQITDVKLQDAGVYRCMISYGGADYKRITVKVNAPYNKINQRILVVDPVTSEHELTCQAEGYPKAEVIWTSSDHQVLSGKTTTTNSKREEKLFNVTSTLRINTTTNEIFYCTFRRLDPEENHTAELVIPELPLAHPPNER
Chain of recombinant human PD1 (Sino Biological Inc.) (Q15116 25-167 limits assumed): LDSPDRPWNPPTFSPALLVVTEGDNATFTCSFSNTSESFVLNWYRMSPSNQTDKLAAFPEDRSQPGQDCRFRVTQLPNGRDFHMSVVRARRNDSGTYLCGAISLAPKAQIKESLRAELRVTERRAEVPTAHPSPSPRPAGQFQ
Chain of recombinant human CTLA4 (Sino Biological Inc.) (P16410 36-162 limits assumed): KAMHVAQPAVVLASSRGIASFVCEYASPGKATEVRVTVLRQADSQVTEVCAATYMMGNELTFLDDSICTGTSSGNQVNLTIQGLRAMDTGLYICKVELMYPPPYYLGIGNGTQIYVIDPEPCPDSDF

binding result [1]: no binding
koff [2]: 0.000531 s⁻¹
binding result [3]: no binding
binding result [4]: no binding
Kd [5]: 0.63 nM
koff [5]: 0.000596 s⁻¹
kon [5]: 946000 M⁻¹ s⁻¹
binding result [6]: no binding
binding result [7]: no binding
binding result [8]: no binding
binding result [9]: no binding
IC50 [10]: 1.08 nM
Kd [11]: 1.17 nM
koff [11]: 0.000594 s⁻¹
kon [11]: 507000 M⁻¹ s⁻¹
B1: chimeric anti-human PD-L1 monoclonal antibody (antibody, human IgG1, kappa, V domains shown)
VH: EVQLQQSGAELVKPGASVKLSCTASGFNIEDTYIHWVMQRPEQGLEWIGRIDPANGNTKYDPKFQGKATITADTSSNTAYLQLSSLTSEDTAVYYCGRGLGAWFAYWGQGTLVTVSA
VL: DIVMTQSHKVMSTSVGDRVTITCKASQDVHTAVAWIHQKPGQSPKLLIYSASNRYTGVPDRFTGSGSGTDFTFTISSVQAEDLAVYYCQQHYITPLTFGAGTTLELKR
notes: expressed in ExpiCHO cells; also called Chimeric mAb; Chimeric antibody
